Assay results taken from article PMC9424529, “Small molecule mediated inhibition of protein cargo recognition by peroxisomal transport receptor PEX5 is toxic to Trypanosoma” (Scientific Reports, 2022).
Where no end group is shown, it is not given here. The star is where a group is joined. 6FAM = O=C1OC2(c3ccc(O)cc3Oc3cc(O)ccc32)c2cc(C(=O)*)ccc21

What was measured:
[1] = target: T1, TPR domain of T. cruzi PEX5 (347–668) (T. cruzi, UniProt Q4DPQ9 347-668); assay: fluorescence polarisation; competitive: increasing unlabeled PTS1 added to 30 nM TcPEX5 (f0 = 0.8) and 10 nM 6-FAM-PTS1; Ki by curve fitting; details: both partners purified
T1 construct: PEX5, Trypanosoma cruzi, C-terminal tetratricopeptide repeat (TPR) domain, residues 347-668; codon-optimised synthetic gene in the petHSU vector; The His-SUMO tag was cleaved on the column with dtUD1 protease; also called TcPEX5; TcPEX5 (TPR domain); source: E. coli BL21 (DE3), purified (HiTrap IMAC, on-column tag cleavage, SEC S75); not shown: His6, N-terminal, cleaved
T1 sequence (looked up): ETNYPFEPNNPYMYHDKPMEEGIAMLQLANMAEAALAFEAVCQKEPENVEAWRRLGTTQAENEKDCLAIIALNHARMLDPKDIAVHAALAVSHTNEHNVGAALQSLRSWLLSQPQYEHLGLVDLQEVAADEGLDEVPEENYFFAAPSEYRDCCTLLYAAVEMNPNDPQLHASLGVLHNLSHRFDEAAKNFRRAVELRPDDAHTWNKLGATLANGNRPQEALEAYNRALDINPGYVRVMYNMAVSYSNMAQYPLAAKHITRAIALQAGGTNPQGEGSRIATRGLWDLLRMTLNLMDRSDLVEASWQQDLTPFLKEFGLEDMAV

[2] = target: T1, TPR domain of T. cruzi PEX5 (347–668); assay: fluorescence polarisation; saturation binding: 10 nM 6-FAM-PTS1 titrated with TcPEX5 (0.1–250 nM); 10 mM Hepes pH 7.5, 100 mM NaCl, 5% DMSO; one-site fit; details: both partners purified

B1: unlabeled PTS1 peptide (peptide)
peptide: YQSKL
notes: pentapeptide representing PTS1, without the label; also called PTS1 alone; unlabeled PTS peptide
Q: Which Ki [1] does the source give for B1 here?
A: 126 nM

B2: 6-FAM-labelled PTS1 (6-FAM-YQSKL) (peptide)
peptide: 6FAM-YQSKL
notes: pentapeptide representing peroxisomal targeting signal 1 (PTS1); also called 6-FAM-PTS1; FAM-PTS1
Q: B2 was tested. Which Kd [2] did it give?
A: 21 nM
